Test results reported in patent EP1788086A1 (HUMAN GENOME SCIENCES, INC., dated 2007).

B1: FADD (other, UniProt Q13158 1-208, looked up)
chain: MDPFLVLLHSVSSSLSSSELTELKFLCLGRVGKRKLERVQSGLDLFSMLLEQNDLEPGHTELLRELLASLRRHDLLRRVDDFEAGAAAGAAPGEEDLCAAFNVICDNVGKDWRRLARQLKVSDTKIDSIEDRYPRNLTERVRESLRIWKNTEKENATVAHLVGALRSCQMNLVADLVQEVQQARDLQNRSGAMSPMSWNSDASTSEAS
notes: Detected with a polyclonal antibody to FADD; also called FADD/MORT1
B2: myc-tagged TRADD (other, UniProt Q15628 1-312, looked up)
chain: MAAGQNGHEEWVGSAYLFVESSLDKVVLSDAYAHPQQKVAVYRALQAALAESGGSPDVLQMLKIHRSDPQLIVQLRFCGRQPCGRFLRAYREGALRAALQRSLAAALAQHSVPLQLELRAGAERLDALLADEERCLSCILAQQPDRLRDEELAELEDALRNLKCGSGARGGDGEVASAPLQPPVPSLSEVKPPPPPPPAQTFLFQGQPVVNRPLSLKDQQTFARSVGLKWRKVGRSLQRGCRALRDPALDSLAYEYEREGLYEQAFQLLRRFVQAEGRRATLQRLVEALEENELTSLAEDLLGLTDPNGGLA
notes: Detected with HRP-conjugated antibody to myc; also called myc-TRADD; not shown: myc tag

Legend:
[1] = target: T1, DR5 (expression construct in 293 cells, precipitated with Flag M2 antibody gel) (human, UniProt O14763 52-440); test: co-immunoprecipitation from co-transfected 293 cell lysates with Flag M2 antibody gel; immunoblot with polyclonal antibody to FADD
T1 construct: also called Death Domain Containing Receptor 5; HLYBX88; not shown: Flag tag implied by immunoprecipitation with Flag M2 gel

[2] = target: T1, DR5 (expression construct in 293 cells, …); test: co-immunoprecipitation from co-transfected 293 cell lysates with Flag M2 antibody gel; immunoblot with HRP-conjugated antibody to myc

Binder	binding result [1]	binding result [2]
B1	no binding	–
B2	–	no binding
